In publication PMC11464762, “AXIN1 boosts antiviral response through IRF3 stabilization and induced phase separation” (Signal Transduction and Targeted Therapy, 2024) one finds EC50 data, which are given here for one molecule.

Broadly, the EC50 is the concentration at which the effect is half-maximal.

This test concerns the target T1, GST-IRF3-IR (GST-tagged IRF3 IR domain) (GST carrier left out. Limits are not printed: the paired constructs IRF3-DP and IRF3-IR are read as DBD + proline-rich region and IAD + C-terminal regulatory (response) region. The IR start at about r).
T1 chain: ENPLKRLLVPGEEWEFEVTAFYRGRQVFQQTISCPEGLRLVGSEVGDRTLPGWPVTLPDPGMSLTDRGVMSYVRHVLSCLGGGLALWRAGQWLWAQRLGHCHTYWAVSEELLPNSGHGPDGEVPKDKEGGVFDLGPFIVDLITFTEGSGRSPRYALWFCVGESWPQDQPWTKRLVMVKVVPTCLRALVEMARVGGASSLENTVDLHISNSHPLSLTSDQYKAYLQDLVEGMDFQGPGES
Description: ELISA; cell-free; purified GST-IRF3-IR and His-AXIN1-RGS (n = 3); which one was coated is not told. As to conditions: both partners purified. On the technique in general: In an ELISA, binding on a coated surface is turned into a signal by an enzyme label.

B1: His-AXIN1-RGS (His-tagged AXIN1 RGS domain) (domain or fragment, UniProt O15169 88-211, looked up)
chain: SLHSLLDDQDGISLFRTFLKQEGCADLLDFWFACTGFRKLEPCDSNEEKRLKLARAIYRKYILDNNGIVSRQTKPATKSFIKGCIMKQLIDPAMFDQAQTEIQATMEENTYPSFLKSDIYLEYT
notes: RGS domain of AXIN1; source: purified
B1: the concentration giving a half-maximal response (EC50) is 1.72 nM.
